In paper doi:10.1101/2020.06.24.163345:

Target: SisCmr7-β (Cmr7 subunit of the S. islandicus Cmr-β complex), dimer (S. islandicus (REY15A))
Experiment: cryo-EM structure

“SisCmr7-β (Cmr7 subunit of the S. islandicus Cmr-β complex), dimer (natural protein)” showed a stoichiometry N of 2.
